Source: patent US6641994B2, “Methods of identifying anti-viral agents” (Pharmacia & Upjohn Company, priority 1999, dated 2003)

Columns and labels:
[1] = target: T1, cyclin A/CDK2 (Homo sapiens, UniProt P20248+P24941); type: biochemical
T1 construct: hemagglutinin (HA); made in house; host or cells: Sf9 or High Five insect cells, baculovirus co-infection

[2] = target: T2, CDK2 (Homo sapiens, UniProt P20248+P24941); type: biochemical
T2 construct: hemagglutinin (HA); made in house; host or cells: Sf9 or High Five insect cells, baculovirus co-infection

[3] = test system: CDK2; test: Effect of E7 on p21/p27 inhibition of CDK2 kinase activity; type: biochemical
Experimental: Histone H1 was chosen as the substrate in the kinase assays since pRb, a physiological CDK2 substrate, is known to bind E7 and could interfere with the assay.
For some assays, HEK293 cell lysate (100 μg total protein, prepared as described above) was preincubated with purified GST-31E7 protein in PBS in the presence of p13 agarose beads (Calbiochem) at 4° C. for one hour, and subsequently incubated with purified His-p27 for 30 min at 4° C. Preincubation was carried out to permit protein complex formation, while p13 agarose beads bind cyclin-dependent kinase complexes to facilitate purification [Dreatta, et al., Cell 56:829-838 (1989)]. After collection and washing four times with PBS, the beads were washed two additional times with KIP buffer containing 50 mM Tris-Cl, pH 7.5, 10 mM MgCl2, 5 mM EGTA, 2 mM DTT, and 10 μM ATP. […] Phosphorylated proteins were analyzed by SDS-PAGE followed by autoradiography and PhosphorImager® analysis.
In other assays, purified cyclin A- or cyclin E-complexed CDK2 was included. […] Kinase activity was measured following addition of 1 μl of 2 mCi/ml [γ-^32P] […] The reaction was stopped by adding SDS sample buffer, and phosphorylated proteins were analyzed by SDS-PAGE followed by autoradiography and PhosphorImager® analysis.

[4] = target: T3, GST-cyclinA (Homo sapiens, UniProt P20248); type: binding; conditions: purified HPV16E7 4 μg; SDS-PAGE and immunoblotting
T3 construct: made in house; host or cells: High Five insect cells, baculovirus

[5] = target: T4, HA-CDK2 (Homo sapiens, UniProt P24941); type: binding
T4 construct: made in house; host or cells: High Five insect cells, baculovirus

[6] = target: T5, cyclin E/CDK2 (Homo sapiens, UniProt P24941); type: biochemical
T5 construct: hemagglutinin (HA); made in house; host or cells: Sf9 or High Five insect cells, baculovirus co-infection

[7] = target: CDK5 complexed with p25 (Homo sapiens, UniProt Q00535); test: Kinase assay CDK5/p25, histone H1 phosphorylation; type: biochemical; conditions: over controls
[8] = test system: MAP kinase 1; test: Kinase assay MAP kinase 1; type: biochemical
Experimental: (§1) In an attempt to determine if the E7 effects on kinase activity were specific for members of the cyclin-dependent kinase family, various kinase/substrate combinations were examined for enhanced activity in the presence of E7.
(§2) When HPV16-E7 was added to either cyclinA/CDK2 or cyclinE/CDK2 using histoneH1 as the substrate, a large increase (26-fold and 13-fold) over controls was noted as described above. When the retinoblastoma (pRb) protein was used as a substrate for cyclinE/CDK2 a 1.9-fold increase over background was noted.

[9] = target: CDC2/cyclinB (Homo sapiens, UniProt P06493); test: Kinase assay CDC2/cyclinB; type: biochemical
Experimental: as §1, §2

[10] = target: T6, pRb (Homo sapiens, UniProt P06400); test: E7 binding assay (GST-E7 on glutathione-agarose beads), pRb
T6 construct: purchased QED Bioscience Inc
T6 sequence (P06400 1-928): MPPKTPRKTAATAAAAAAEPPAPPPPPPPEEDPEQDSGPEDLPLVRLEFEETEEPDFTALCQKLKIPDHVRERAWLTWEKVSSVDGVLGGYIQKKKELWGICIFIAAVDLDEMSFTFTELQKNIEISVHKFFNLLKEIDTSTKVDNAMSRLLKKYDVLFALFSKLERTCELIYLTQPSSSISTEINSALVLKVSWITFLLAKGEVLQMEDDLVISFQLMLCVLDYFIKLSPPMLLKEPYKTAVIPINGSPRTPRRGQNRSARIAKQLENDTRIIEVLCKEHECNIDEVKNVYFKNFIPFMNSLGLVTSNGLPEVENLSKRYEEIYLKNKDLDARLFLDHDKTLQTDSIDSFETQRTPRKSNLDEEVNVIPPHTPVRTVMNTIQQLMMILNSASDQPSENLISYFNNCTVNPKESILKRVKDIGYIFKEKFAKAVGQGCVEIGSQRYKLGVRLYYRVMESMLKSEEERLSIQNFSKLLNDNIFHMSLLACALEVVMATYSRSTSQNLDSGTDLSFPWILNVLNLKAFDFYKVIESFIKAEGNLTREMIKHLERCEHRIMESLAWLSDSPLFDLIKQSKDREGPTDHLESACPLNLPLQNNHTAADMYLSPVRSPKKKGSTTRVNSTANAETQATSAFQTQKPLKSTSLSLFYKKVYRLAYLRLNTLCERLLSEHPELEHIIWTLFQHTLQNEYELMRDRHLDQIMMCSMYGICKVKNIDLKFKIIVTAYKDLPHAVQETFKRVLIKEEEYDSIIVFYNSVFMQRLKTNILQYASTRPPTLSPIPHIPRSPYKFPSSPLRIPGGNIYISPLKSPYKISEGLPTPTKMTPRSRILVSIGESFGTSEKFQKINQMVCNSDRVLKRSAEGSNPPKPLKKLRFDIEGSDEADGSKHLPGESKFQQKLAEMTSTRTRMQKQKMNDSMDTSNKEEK
Experimental: For HPV31E7, the amplification product was subcloned into pGEX-4T-3 previously digested with BamHI, while HPV6b and HPV16 E7 amplification products were subcloned into pGEX-4T-3 previously digested with BamHI and XhoI. Proper orientation was determined using restriction mapping, sequence analysis was carried out using Perkin-Elmer ABI-Prism® technology, and the expression constructs were individually transfected into a JM 109 strain of E. coli. Bacteria in log-growth phase were harvested by centrifugation after a four hour induction with 0.5 mM IPTG at 30° C. […] After extensive washing with PBS, the GST-E7-coupled beads were stored at 4° C. until use. Protein levels were measured using a BioRad protein assay kit, and purified protein preparations were examined by SDS-PAGE followed by Coomassie blue staining and Western blotting. […]
GST-16E7 or GST-31E7 fusion proteins bound to glutathione-agarose beads were incubated with either purified pRb (QED Bioscience Inc.), His-p21, His-p21N, His-p21C, His-p27, His-p27N, His-p27C, or HEK293 cell lysate at 4° C. for two hours in binding buffer containing 20 mM HEPES, pH 7.4, 10 mM KCl, 1 mM EDTA, 1 mM EGTA, 140 mM NaCl, 13% glycerol, 1 mM DTT, and 1× protease inhibitor tablet (Boehringer Mannheim). […] Eluted proteins were separated using 15% SDS-PAGE and the proteins were analyzed by Coomassie blue staining and Western blotting.

T1 sequence (P20248 whole entry, one chain of several): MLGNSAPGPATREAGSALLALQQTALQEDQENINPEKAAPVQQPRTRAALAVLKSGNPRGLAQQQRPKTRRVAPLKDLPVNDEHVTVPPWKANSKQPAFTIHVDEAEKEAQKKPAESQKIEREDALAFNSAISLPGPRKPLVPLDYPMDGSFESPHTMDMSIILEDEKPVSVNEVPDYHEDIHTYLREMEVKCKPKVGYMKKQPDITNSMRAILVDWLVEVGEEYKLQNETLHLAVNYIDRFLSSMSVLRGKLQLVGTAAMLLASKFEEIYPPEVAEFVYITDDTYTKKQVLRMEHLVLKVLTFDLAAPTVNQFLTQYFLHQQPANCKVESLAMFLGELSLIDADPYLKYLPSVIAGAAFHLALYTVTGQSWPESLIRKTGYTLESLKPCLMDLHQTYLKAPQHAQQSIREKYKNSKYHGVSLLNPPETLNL
T2 sequence (P20248 whole entry, one chain of several): as above
T3 sequence (P20248 whole entry): as the sequence (P20248 whole entry, one chain of several) above
CDC2/cyclinB, sequence (P06493 whole entry, species assumed): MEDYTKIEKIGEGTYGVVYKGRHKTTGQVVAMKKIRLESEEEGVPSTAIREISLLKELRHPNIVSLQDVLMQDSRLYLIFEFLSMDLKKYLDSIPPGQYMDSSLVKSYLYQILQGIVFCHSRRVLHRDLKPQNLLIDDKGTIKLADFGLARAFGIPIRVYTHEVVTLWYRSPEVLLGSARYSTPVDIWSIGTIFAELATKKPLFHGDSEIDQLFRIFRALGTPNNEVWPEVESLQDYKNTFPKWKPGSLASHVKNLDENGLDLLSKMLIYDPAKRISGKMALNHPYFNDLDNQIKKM
CDC2/cyclinB, sequence (P14635 whole entry partner, species assumed): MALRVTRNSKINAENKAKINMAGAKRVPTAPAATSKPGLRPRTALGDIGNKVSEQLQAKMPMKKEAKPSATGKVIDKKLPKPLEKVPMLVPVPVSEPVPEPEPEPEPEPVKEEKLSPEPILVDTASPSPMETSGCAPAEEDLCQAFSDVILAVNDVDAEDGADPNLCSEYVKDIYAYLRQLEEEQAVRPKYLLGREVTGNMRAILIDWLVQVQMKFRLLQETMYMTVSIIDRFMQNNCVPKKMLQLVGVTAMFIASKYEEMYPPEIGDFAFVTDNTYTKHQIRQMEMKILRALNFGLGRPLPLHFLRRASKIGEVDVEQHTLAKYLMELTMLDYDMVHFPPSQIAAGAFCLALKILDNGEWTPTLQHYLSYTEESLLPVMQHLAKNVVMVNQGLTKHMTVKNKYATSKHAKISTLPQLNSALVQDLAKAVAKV
CDK5 complexed with p25, sequence (Q00535 whole entry): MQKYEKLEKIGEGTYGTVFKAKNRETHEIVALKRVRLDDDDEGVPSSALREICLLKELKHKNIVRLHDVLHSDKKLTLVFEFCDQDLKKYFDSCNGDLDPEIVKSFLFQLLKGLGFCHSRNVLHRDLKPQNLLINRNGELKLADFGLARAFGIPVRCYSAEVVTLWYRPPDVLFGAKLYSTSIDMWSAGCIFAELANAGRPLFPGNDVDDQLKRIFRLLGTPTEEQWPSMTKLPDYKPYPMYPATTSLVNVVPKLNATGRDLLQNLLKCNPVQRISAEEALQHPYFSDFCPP
CDK5 complexed with p25, sequence (Q15078 99-307 partner limits assumed): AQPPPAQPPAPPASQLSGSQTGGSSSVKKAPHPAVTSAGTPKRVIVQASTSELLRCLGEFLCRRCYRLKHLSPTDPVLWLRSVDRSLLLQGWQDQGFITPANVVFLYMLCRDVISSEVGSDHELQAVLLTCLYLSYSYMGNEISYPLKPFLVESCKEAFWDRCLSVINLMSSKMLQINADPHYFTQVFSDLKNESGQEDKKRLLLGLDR

Row | Molecule | phosphorylation of HPV E2 by CDK2/cyclinA [1] | peak stimulatory activity (concentration) [2] | EC50 ([2]; read-out: 50% stimulatory concentration of E7) | effect on p21- and p27-dependent inhibition of cyclin E/CDK2 activity ([3]; histone H1 substrate) | effect on p27 inhibition of CDK2 activity ([3]; purified cyclin E/CDK2 and cyclin A/CDK2, solution kinase assay) | binding to beads containing GST-cyclinA [4] | binding to beads with immobilized HA-CDK2 [5] | effect on cyclin A/CDK2 histone H1 kinase activity [1] | Km ([1]; read-out: Km for histone H1) | increase in cyclinE/CDK2 kinase activity [6] | increase in pRb kinase activity [6] | stimulation of cyclin E/CDK2 phosphorylation of MBP-HPV 18 E1 fusion protein [6] | increase in H1 phosphorylation by CDK5 complexed with p25 [7] | MAP kinase 1 activity [8] | CDC2/cyclinB activity [9] | binding to pRb in HEK 293 cell lysate ([10]; HEK 293 cell lysate) | binding to purified pRb ([10]; purified pRb, SDS-PAGE, Coomassie and Western blot)
1 | E7: HPV E7 protein or GST-E7 fusion, strain not named at the place; b203 used purified HPV16E7 | enhanced | approximately 0.29 μM | ~0.18 µM | little or no effect | little or no effect | binding | no binding |  |  |  |  |  |  |  |  |  | 
2 | GST-16E7: HPV16 E7 protein expressed as a glutathione-S-transferase (GST) fusion protein (protein, left off: a dimerising Fc or GST) MHGDTPTLHEYMLDLQPETTDLYCYEQLNDSSEEEDEIDGPAGQAEPDRAHYNIVTFCCKCDSTLRLCVQSTHVDIRTLEDLLMGTLGIVCPICSQKP |  |  |  |  |  |  |  | significant effect | 1.1 µM | 13 fold | 1.9 fold | 2.3 fold | 4.5 fold | unaffected | unaffected |  | 
3 | GST-31E7: HPV31 E7 protein expressed as a GST fusion protein (protein, left off: a dimerising Fc or GST) MRGETPTLQDYVLDLQPEATDLHCYEQLPDSSDEEDVIDSPAGQAEPDTSNYNIVTFCCQCKSTLRLCVQSTQVDIRILQELLMGSFGIVCPNCSTRL |  |  |  |  |  |  |  | significant effect |  |  |  |  |  |  |  | bound | bound
